Values belong to the binder of their own block, whether it stands above or below them.
What was measured:
[1] = molecular target: T1, Hepsin (human), recombinant, active (human, UniProt P05981 45-417); experiment: enzyme inhibition, S2765 substrate (ratio of Ki app)
T1 construct: In the Octet and ELISA assays it was biotinylated with Sulfo-NHS-LC-Biotin; also called human hepsin; active hepsin
Method: (§1) Enzymatic assays with synthetic substrates: Fab25, IgG25, control Fab, or control IgG were incubated with hepsin (1 nM for human and 2 nM for mouse hepsin) in Hepes buffer (20 mM Hepes, pH 7.5, 150 mM NaCl, 5 mM CaCl₂, 0.01% Triton X-100) for 40 min at room temperature. For experiments with 3,4-dichloro-isocoumarin (DCI), hepsin (1 nM) was incubated with DCI in Hepes buffer containing 0.5% DMSO for 40 min. S2765 was added (final concentration of 0.2 mM) and the linear rates of the increase in absorbance at 405 nm measured on a kinetic microplate reader (Versamax, Molecular Devices, Sunnyvale, Calif.). Data were expressed as fractional enzyme activity (vᵢ/vₒ) and fitted to a four parameter regression curve fitting program (Kaleidagraph Version 3.6, Synergy Software) to determine the IC₅₀ values. Values are the average±SD of three independent experiments. Kᵢ^app values for Fab25 and IgG25 were calculated by fitting the data to the equation for tight binding inhibition systems (Morrison, 1969; Olivero et al., 2005).

[2] = molecular target: mouse hepsin extracellular domain (Ser45-Pro416) with C-terminal His-tag (mouse) (UniProt O35453)
[3] = molecular target: T1, Hepsin (human), recombinant, active; experiment: cell-based or functional assay
[4] = molecular target: T1, Hepsin (human), recombinant, active; experiment: isothermal titration calorimetry, Fab25 titrated into active hepsin
Method: FIG. 18: Isothermal titration calorimetric experiment of Fab25 binding to active hepsin. The association reaction is exothermic and the stoichiometry of binding is 1:1 as expected.
Isothermal Titration calorimetry: TC experiments were performed on a ITC₂₀₀ instrument (GE healthcare). Fab25 and hepsin were purified separately on a size exclusion chromatographic column (Superdex S200, GE healthcare), using a buffer containing 50 mM HEPES pH 7.5 and 150 mM NaCl. The sample cell (204 μl) was loaded with hepsin (14 μM) and the Fab25 concentration in the syringe was 138 μM. A titration experiment typically consisted of 20 injections, each of 2 μL volume and 180 sec duration, with a 3 min interval between additions. The stirring rate was 1000 rpm. Raw data were integrated, corrected for nonspecific heats, normalized for concentration, and analyzed according to a 1:1 binding model assuming a single set of identical binding sites. (The isothermal titration curve was registered and analyzed using ORIGIN software provided with the ITC instrument. The data were integrated to provide a titration curve; and, by using a nonlinear least-squares fit, the binding constant KA, the heat of binding (ΔH), and the stoichiometry of binding were extracted from the curve.

[5] = molecular target: T1, Hepsin (human), recombinant, active; experiment: enzyme inhibition, S2765 substrate, tight binding inhibition fit (Ki app); Fab25, human hepsin
Method: as §1

[6] = molecular target: mouse hepsin extracellular domain (Ser45-Pro416) with C-terminal His-tag (mouse) (UniProt O35453); experiment: enzyme inhibition, S2765 substrate, tight binding inhibition fit (Ki app); Fab25, murine hepsin
[7] = molecular target: T1, Hepsin (human), recombinant, active; experiment: BLI (Octet RED), biotinylated hepsin on streptavidin sensor, Fab25 in solution, 1:1 fit
Method: Fab25 binding to hepsin: An Octet-RED system equipped with streptavidin SBC biosensor tips was purchased from ForteBio (Menlo Park, Calif.). Prior to the start of the experiment, the sensor tips were pre-wet for 15 minutes at 25° C. in a buffer containing 50 mM Hepes pH 7.5, 150 mM NaCl and 0.05% tween-20. Biotinylated hepsin (7.5 μg/ml) was captured on to the streptavidin sensor for 5 minutes with agitation at 1000 rpm. The sensors were briefly washed in buffer before dipping them on to the sample wells containing Fab25 (2-fold serial dilution starting from 200 nM) and buffer control. Association was monitored for 10 minutes and dissociation was followed for 30 minutes. The data was fit to 1:1 binding model using Octet-RED analysis software.

[8] = molecular target: T1, Hepsin (human), recombinant, active; experiment: cell-based or functional assay; remark: listed apart in the source
[9] = molecular target: T1, Hepsin (human), recombinant, active; experiment: enzyme inhibition, S2765 substrate, tight binding inhibition fit (Ki app); IgG25, not Fab; human hepsin
Method: as §1

pro-hepsin = pro-hepsin (UniProt P05981 45-417, limits assumed); experiment: SPR (BIAcore 3000), Ab25 captured on CM5 chip, pro-hepsin injected, steady state analysis
Chain of pro-hepsin (P05981 45-417 limits assumed): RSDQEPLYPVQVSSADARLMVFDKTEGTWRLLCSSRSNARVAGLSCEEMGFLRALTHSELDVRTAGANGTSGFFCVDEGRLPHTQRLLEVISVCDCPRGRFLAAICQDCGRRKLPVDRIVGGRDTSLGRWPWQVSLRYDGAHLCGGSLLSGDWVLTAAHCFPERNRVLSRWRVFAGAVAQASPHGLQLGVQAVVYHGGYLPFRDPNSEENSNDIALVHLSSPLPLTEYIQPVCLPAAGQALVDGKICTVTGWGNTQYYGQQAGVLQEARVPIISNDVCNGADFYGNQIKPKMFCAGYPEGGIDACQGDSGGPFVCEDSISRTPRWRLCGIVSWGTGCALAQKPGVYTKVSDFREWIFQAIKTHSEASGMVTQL
Method: (§2) FIG. 17: A. Surface plasmon resonance was used to measure the binding affinity of Ab25 with active human hepsin. Serial dilutions of hepsin (0.39 nM to 200 nM) were injected to a CM5 biosensor chip with captured Ab25 for 3 minutes and the dissociation was monitored for 15 minutes. […] Serial dilutions of pro-hepsin (195 nM to 80 μM) were injected to a CM5 biosensor chip with captured Ab25 for 2 minutes.
(§3) Binding of Ab25 to hepsin by surface plasmon resonance: Surface plasmon resonance measurements were performed on a BIAcore™-3000 instrument (GE Health Care, NJ) to determine binding affinity of the Ab25. Rabbit anti-human IgG were chemically immobilized (amine coupling) on CM5 biosensor chips and Ab25 was captured to give approximately 350 response units (RU). For kinetics measurements, two-fold serial dilutions of active hepsin (1 nM to 500 nM) were injected in HBS-P buffer at 25° C. with a flow rate of 30 μl/min. Association rates (kₐ) and dissociation rates (kd) were obtained by using a simple one-to-one Langmuir binding model (BIA-Evaluation) and the equilibrium dissociation constants (KD) were calculated (kd/kₐ). Due to rapid kinetics, a steady state measurement was used to determine the affinity of pro-hepsin with Ab25. […] The values of Req were calculated and plotted individually against C (concentration of pro-hepsin) using BIA-Evaluation to determine KD.

[10] = molecular target: T1, Hepsin (human), recombinant, active; experiment: SPR (BIAcore 3000), Ab25 captured by anti-human IgG on CM5 chip, active human hepsin injected, 1:1 fit
Method: as §2, §3

[11] = molecular target: T1, Hepsin (human), recombinant, active; experiment: phage competition ELISA: biotin-hepsin immobilised on NeutrAvidin plates, bound Fab25-phage detected with anti-M13-HRP, KD1 titrated as competitor of Fab25-phage

T1 sequence (P05981 45-417 limits assumed): as above

- fold more potent inhibition than of murine hepsin [1]: ~80 fold
- IC50 (read off the curve) [2]: 300 nM
- IC50 of hepsin-mediated pro-uPA activation (two-stage enzymatic assay) [3]: 3.3 nM
- Kd [4]: 6.1 nM
- stoichiometry of binding [4]: 1 Fab25 per hepsin
- Ki [5]: 4.1 nM
- Ki [6]: 329 nM
- Kd [7]: 2.55 nM
- IC50 (read off the curve) [8]: ~5 nM
B1: anti-hepsin antibody Fab25 (Fab, V domains shown)
VH: EVQLVESGGGLVQPGGSLRLSCAASGFNFSYSYMHWVRQAPGKGLEWVASIYSYYGSTYYADSVKGRFTISADTSKNTAYLQMNSLRAEDTAVYYCARSDSWSYKSGYTQKIYSKGLDYWGQGTLVTVSS
VL: DIQMTQSPSSLSASVGDRVTITCRASQSVSSAVAWYQQKPGKAPKLLIYSASSKGVPSRFSGSRSGTDFTLTISSLQPEDFATYYCQQYYSSYYLLTFGQGTKVEIK
notes: also called HpsFab25; Clone 25 (Fab form)

- Ki [9]: 11.3 nM
- Kd (pro-hepsin): 5520 nM
- Kd [10]: 10.6 nM
B2: anti-hepsin antibody IgG25 (antibody, V domains shown)
VH: EVQLVESGGGLVQPGGSLRLSCAASGFNFSYSYMHWVRQAPGKGLEWVASIYSYYGSTYYADSVKGRFTISADTSKNTAYLQMNSLRAEDTAVYYCARSDSWSYKSGYTQKIYSKGLDYWGQGTLVTVSS
VL: DIQMTQSPSSLSASVGDRVTITCRASQSVSSAVAWYQQKPGKAPKLLIYSASSKGVPSRFSGSRSGTDFTLTISSLQPEDFATYYCQQYYSSYYLLTFGQGTKVEIK
notes: also called Ab25; mab 25

- IC50 (read off the curve) [11]: ~0.2 nM
B3: Kunitz domain inhibitor-1 (KD1) derived from HGFA-inhibitor-1 (HAI-1) (other, UniProt O43278 246-303, looked up)
chain: TEDYCLASNKVGRCRGSFPRWYYDPTEQICKSFVYGGCLGNKNNYLREEECILACRGV

— US20110262452A1 (Genentech, published 2011)
